Target: protein kinase A catalytic (C) subunit, wild type (UniProt P05132 2-351)
Assay: SPR

Kd: 2.9 nM
koff: 0.000316 s⁻¹
B1: RIIβAB, truncated PKA regulatory subunit RIIβ (domain or fragment)
chain: TRRASVCAEAYNPDEEEDDAESRIIHPKTDDQRNRLQEACKDILLFKNLDPEQMSQVLDAMFEKLVKEGEHVIDQGDDGDNFYVIDRGTFDIYVKCDGVGRCVGNYDNRGSFGELALMYNTPRAATITATSPGALWGLDRVTFRRIIVKNNAKKRKMYESFIESLPFLKSLEVSERLKVVDVIGTKVYNDGEQIIAQGDSADSFFIVESGEVRITMKRKGKSDIEENGAVEIARCLRGQYFGELALVTNKPRAASAHAIGTVKCLAMDVQAFERLLGPCMEIMKRNIATYEEQLV

— PMC2791020 (The Journal of Biological Chemistry, 2009)
